# T1: hSIRP-VβC1βC2γ (human, UniProt O00241 30-398)
# T1 chain: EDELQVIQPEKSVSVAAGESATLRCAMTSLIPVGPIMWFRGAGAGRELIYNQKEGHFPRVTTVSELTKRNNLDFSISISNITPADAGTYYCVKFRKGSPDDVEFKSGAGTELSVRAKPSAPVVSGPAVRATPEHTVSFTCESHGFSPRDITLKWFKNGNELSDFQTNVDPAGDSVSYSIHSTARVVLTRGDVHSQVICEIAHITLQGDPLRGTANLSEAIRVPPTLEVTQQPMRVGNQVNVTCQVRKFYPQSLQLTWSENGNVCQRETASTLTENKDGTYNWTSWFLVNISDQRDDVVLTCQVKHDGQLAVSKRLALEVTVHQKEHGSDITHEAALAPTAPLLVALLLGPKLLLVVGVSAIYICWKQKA
# Assays:
# [1] = target: T2, hSIRPα expressed on primary human cells (human, UniProt P78324 31-504); test: flow cytometry on CD14+ enriched monocytes, human donor 1; blocked ligand: DyLight 488-labeled recombinant hCD47/Fc
# T2 construct: whole, on cells; also called hSIRPα on primary human CD14+ monocytes; on primary human granulocytes
# T2 sequence (P78324 31-504): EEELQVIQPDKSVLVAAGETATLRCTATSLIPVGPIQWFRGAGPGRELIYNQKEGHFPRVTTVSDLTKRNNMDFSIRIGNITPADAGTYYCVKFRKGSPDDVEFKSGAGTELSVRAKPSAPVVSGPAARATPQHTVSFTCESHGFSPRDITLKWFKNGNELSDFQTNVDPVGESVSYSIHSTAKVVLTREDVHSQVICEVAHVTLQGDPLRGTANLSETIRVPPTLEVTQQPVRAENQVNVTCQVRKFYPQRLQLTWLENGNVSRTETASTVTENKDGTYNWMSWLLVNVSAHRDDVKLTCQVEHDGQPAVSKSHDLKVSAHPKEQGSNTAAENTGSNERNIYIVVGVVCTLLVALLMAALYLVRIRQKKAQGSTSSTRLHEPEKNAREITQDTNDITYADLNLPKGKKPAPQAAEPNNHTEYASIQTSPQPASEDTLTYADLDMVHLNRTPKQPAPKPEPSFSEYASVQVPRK
# Description: To assess the blocking ability of hSIRPα.40A, CD14+ enriched monocytes cells were seeded in 96-well round bottomed tissue culture plates and incubated for 45 minutes with FcR Blocking Reagent (Miltenyi Biotec) and hSIRPα.40A antibody (20 μg/mL and dilutions thereof) in PBS/1% BSA at 4° C. […] After this labeling procedure, cells were washed two times, resuspended in PBS/1% BSA containing 0.1 μg/mL DAPI (BioLegend), and analysed by flow cytometry on the FACSVerse (BD Biosciences). Data were processed and analysed with FlowJo V10 software (FlowJo, LLC). […] IC50 values represent the concentration at which half of the inhibition is observed.
# [2] = target: T3, human SIRPα variant 1 (human, UniProt P78324 31-504); test: CELISA, CHO-K1 transfectants; average of two experiments
# T3 construct: full length ORF on transfected CHO-K1 or HEK293 cells; entry includes the signal peptide; also called hSIRPαV1; SIRPαV1
# T3 sequence (P78324 31-504 limits assumed, change not shown): as the sequence (P78324 31-504) above
# Description: (§1) Binding of the humanized antibodies to hSIRPα was studied in CELISA format. Binding of the hSIRPα antibodies to human SIRPαV1, SIRPαV2, hSIRPβ1, and hSIRPγ was confirmed using CHO-K1 cells that had been transiently transfected with cDNA encoding the full length open reading frame of each of these respective targets subcloned into the pCI-neo vector. CHO-K1.hSIRPαV1, CHO-K1.hSIRPαV2, CHO-K1.hSIRPβ1, and CHO-K1.hSIRPγ cells were seeded in culture medium (DMEM-F12 (Gibco) supplemented with 5% New Born Calf Serum (BioWest) and Pen/Strep (Gibco)) in 96-well flat-bottom tissue culture plates and incubated at 37° C., 5% CO₂ and 95% humidity until cell layers were confluent. Subsequently, culture medium was removed and cells were incubated for 1 hour at 37° C., 5% CO₂ and 95% humidity with purified hSIRPα antibodies (10 μg/mL and dilutions thereof). Next, cells were washed with PBS-T and incubated for 1 hour at 37° C., 5% CO₂ and 95% humidity with goat-anti-human IgG-HRP conjugate (Jackson Immuno Research) or goat-anti-mouse IgG-HRP (Southern Biotech). Subsequently, cells were washed three times with PBS-T and anti-hSIRPα immunoreactivity was visualized with TMB Stabilized Chromogen (Invitrogen). Reactions were stopped with 0.5 M H₂SO₄ and absorbances were read at 450 and 610 nm. […] In Table 13 the EC50 values of the humanized hSIRPα antibodies are depicted.
# (§2) Table 13: Binding of humanized and parental hSIRPα.50A antibodies to CHO-K1.hSIRPαV1, CHO-K1.hSIRPαV2, CHO-K1.hSIRPβ1, and CHO-K1.hSIRPγ cells.
# [3] = target: T4, human SIRPα variant 2 (human, UniProt P78324 31-504); test: as above
# T4 construct: full length ORF on transfected CHO-K1 cells; also called hSIRPαV2; SIRPαV2
# T4 sequence (P78324 other isoform, or with tags, fused parts or gaps mutant limits assumed): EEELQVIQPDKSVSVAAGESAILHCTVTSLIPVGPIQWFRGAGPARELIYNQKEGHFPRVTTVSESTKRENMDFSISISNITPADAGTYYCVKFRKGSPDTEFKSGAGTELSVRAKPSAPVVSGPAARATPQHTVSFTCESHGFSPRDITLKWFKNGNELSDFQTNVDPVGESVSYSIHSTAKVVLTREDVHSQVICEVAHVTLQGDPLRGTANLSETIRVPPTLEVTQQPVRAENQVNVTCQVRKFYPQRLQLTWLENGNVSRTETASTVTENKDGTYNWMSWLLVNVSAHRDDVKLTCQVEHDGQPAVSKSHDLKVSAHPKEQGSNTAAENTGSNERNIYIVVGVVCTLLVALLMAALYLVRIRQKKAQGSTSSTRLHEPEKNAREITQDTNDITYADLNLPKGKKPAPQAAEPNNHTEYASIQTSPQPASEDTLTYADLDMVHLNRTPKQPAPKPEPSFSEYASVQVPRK
# Description: as §1, §2
# [4] = target: T1, hSIRP-VβC1βC2γ; test: CELISA, CHO-K1 transfectants, domain exchange study; nd = not detected
# Text: Based on the fold of SIRPα/β1/γ, the extracellular region can be subdivided into three separate domains: the Ig-like (immunoglobulin-like) V-type (IgV), Ig-like C1-type (IgC1), and Ig-like C2-type (IgC2) domain. The IgV domain is also known as the ligand-binding N-terminal domain of SIRPα and SIRPγ (which binds to CD47). The human SIRPβ1/γ mutants were designed based on the full length hSIRPβ1 sequence (SEQ ID NO: 38) and each individual Ig-like domain was substituted for the equivalent domain of human SIRPγ (SEQ ID NO: 40). […] Binding of hSIRPα.40A to the exchange mutants was tested using CELISA. To this end, CHO-K1 cells were transiently transfected, using Lipofectamine 2000, with the pCI-neo vectors encoding hSIRPαV1, hSIRPαV2, hSIRPβ1, hSIRP-VγC1βC2β, hSIRP-VβC1γC2β, and hSIRP-VβC1βC2γ, respectively. The transfected cells were cultured at 37° C., 5% CO₂ and 95% humidity in medium (DMEM-F12 (Gibco) with 5% New Born Calf serum (Biowest) and Pen/Strep (Gibco)) until confluent. Subsequently, cells were trypsinized and seeded in 96-well flat-bottom tissue culture plates and cultured at 37° C., 5% CO₂ and 95% humidity in culture medium until confluent. […] Reactions were stopped with 0.5 M H₂SO₄ and absorbances were read at 450 and 610 nm.
IC50 (read off the curve) [1] [nM],EC50 [2] [nM],EC50 [3] [nM],binding result [4],Binder
~0.4,,,,"hSIRPα.40A (antibody, mouse IgG1, kappa, V domains shown, mouse antibody, full chains without signal peptide; also called mouse hSIRPα.40A) VH: EVQFQQSGTVLARPGTSVKMSCKASGSTFTSYWMHWVKQGPGQGLQWIGAIYPVNNDTTYNQKFKGKAELTVVTSTSTAYMEVSSLTNEDSAVYYCTRSFYYSLDAAWFVYWGQGTLVTVSA VL: DIQMTQSPSSLSASLGERVSLTCRASQDIGSRLNWLQQEPDGTIKRLIYATSSLDSGVPKRFSGSRSGSDYSLTISGLESEDFVDYYCLQYASSPFTFGGGTKLEINR"
,1.36,1.3,no binding,"hSIRPα.50A (antibody, V domains shown, light chain constant domain not tied; also called mouse hSIRPα.50A; hSIRPα.50A.mIgG1) VH: QVQLQQSGPELVKPGASVRISCKASGFTFTNYYIHWVKQRPGQGLEWIGWIYPGNVNTKYNEKFKAKATLTADKSSTTAYMQLSSLASEDSAVYFCARPTIIATDFDVWGAGTTVTVSS VL: DIVMTQSHKFMSTSVGDRVNITCKASQGVGTAVGWYQQKPGQSPRLLIYWASTRHTGVPDRFTGSGSGTDFSLAISNVQSEDLADYFCQQYSTYPFTFGGGTNLEIK"

# Source: patent US20180312587A1 (ADURO BIOTECH HOLDINGS EUROPE B V, published 2018)
